Data reported in patent publication US20090148861A1 (SALK INSTITUTE, published 2009).
Substitutions are numbered along the chain they refer to. Numbers in names are those of the source. One block for each molecule: values may come before it.

Tests used:
[1] = molecular target: GIRK2 L257A mutant channel; assay: cell-based or functional assay
[2] = molecular target: GIRK2 L257W mutant channel; assay: cell-based or functional assay
[3] = molecular target: GIRK2 L257Y mutant channel; assay: cell-based or functional assay
[4] = molecular target: GIRK2 Y349W mutant channel; assay: cell-based or functional assay
[5] = molecular target: GIRK2c channel, wild type; assay: cell-based or functional assay
[6] = molecular target: GIRK4 S143T mutant channel; assay: cell-based or functional assay
[7] = molecular target: GIRK4* L252A mutant channel; assay: cell-based or functional assay
[8] = molecular target: GIRK4* L252W mutant channel; assay: cell-based or functional assay
[9] = molecular target: GIRK4* L252Y mutant channel; assay: cell-based or functional assay
[10] = molecular target: the molecule itself; assay: X-ray crystal structure at 2.0 A; homotetramer
[11] = molecular target: the molecule itself; assay: S200 Sepharose size chromatography; self-association of the cytoplasmic domains into a tetramer
Protocol: (§1) Kir2.1 mutants were grown in Terrific Broth at 37 degrees C. to the OD600 of 0.6, then induced with 0.5 mM IPTG for 3 hours prior to harvesting. Cells were lysed in 0.5M NaCl, 20 mM Tris-HCl pH 8.5, 10% glycerol, 7 mM beta-mercaptoethanol, 0.1 mM PMSF, 10 mM imidazole and 0.5 mg lysozyme per 100 ml of lysate. The lysate was sonicated and spun at 94,000 G for 45 minutes. The supernatant was loaded on a 2 ml-packed nickel affinity column (Qiagen), washed with 5 ml of lysis buffer without PMSF, and then eluted with lysis buffer with 250 mM imidazole. Thrombin was added to the eluted fraction and it was dialyzed against the sizing column buffer, 150 mM NaCl, 5 mM Tris-HCl pH 8.5, 2 mM DTT. Kir2.1 was then purified by S200 Sepharose chromatography and concentrated to 10 mg/ml with 10 mM DTT. Kir2.1 proteins were loaded on a G4000PWXL HPLC column (TOSOH) equilibrated in 150 mM NaCl, 5 mM Tris-HCl 8.5, 2 mM DTT. Molecular weight (MW) of the tetramer complex was calculated by Minidawn static light scattering requiring the use of the extinction coefficient of the monomer. The extinction coefficient was derived from the primary sequence of the protein. […]

[12] = molecular target: the molecule itself; assay: sizing column; self-association into a tetramer
Protocol: Kir2.1 mutants were grown in Terrific Broth at 37 degrees C. to the OD600 of 0.6, then induced with 0.5 mM IPTG for 3 hours prior to harvesting. Cells were lysed in 0.5M NaCl, 20 mM Tris-HCl pH 8.5, 10% glycerol, 7 mM beta-mercaptoethanol, 0.1 mM PMSF, 10 mM imidazole and 0.5 mg lysozyme per 100 ml of lysate. The lysate was sonicated and spun at 94,000 G for 45 minutes. The supernatant was loaded on a 2 ml-packed nickel affinity column (Qiagen), washed with 5 ml of lysis buffer without PMSF, and then eluted with lysis buffer with 250 mM imidazole. Thrombin was added to the eluted fraction and it was dialyzed against the sizing column buffer, 150 mM NaCl, 5 mM Tris-HCl pH 8.5, 2 mM DTT. Kir2.1 was then purified by S200 Sepharose chromatography and concentrated to 10 mg/ml with 10 mM DTT. Kir2.1 proteins were loaded on a G4000PWXL HPLC column (TOSOH) equilibrated in 150 mM NaCl, 5 mM Tris-HCl 8.5, 2 mM DTT. Molecular weight (MW) of the tetramer complex was calculated by Minidawn static light scattering requiring the use of the extinction coefficient of the monomer. The extinction coefficient was derived from the primary sequence of the protein.
To understand the nature of the mildly-aggregating R218Q, it was reasoned that changing the Thr309 to a positive charge residue would restore a polar interaction similar to the native one present in Kir2.1 between Arg218 and Thr309 (FIG. 2C). […]

[13] = molecular target: the molecule itself; assay: size chromatography of the cytoplasmic domains; homotetramer
Protocol: as §1

percent change from basal current on Carbachol, whole-cell patch clamp [1]: 36%
percent change from basal current on Carbachol, whole-cell patch clamp [2]: 12%
percent change from basal current on Carbachol, whole-cell patch clamp [3]: 38%
percent change from basal current on Carbachol, whole-cell patch clamp [4]: 56%
percent change from Ba++ sensitive basal current on 5 uM Carbachol (M2R co-transfected), whole-cell patch clamp [5]: 928%
Carb activation as percent of basal current, whole-cell patch clamp (% of basal current) [6]: 231
Carb activation as percent of basal current, whole-cell patch clamp [7]: 51%
Carb activation as percent of basal current, whole-cell patch clamp [8]: 23%
Carb activation as percent of basal current, whole-cell patch clamp [9]: 110%
Molecule: G-protein beta-gamma subunits

B1: Kir2.1S-R218Q/T309K, N-terminal (44-64) fused to C-terminal (189-371) of mouse Kir2.1 (other, UniProt P35561 44-64, looked up)
chain: RSRFVKKDGHCNVQFINVGEKRNETLVFSHNAVIAMRDGKLCLMWRVGNLQKSHLVEAHVRAQLLKSRITSEGEYIPLDQIDINVGFDSGIDRIFLVSPITIVHEIDEDSPLYDLSKQDIDNADFEIVVILEGMVEATAMTKQCRSSYLANEILWGHRYEPVLFEEKHYYKVDYSRFHKTYEVPNTPLCSARDLAEKKYILSNA
notes: range 44-64;range 189-371; Crystallised form (2.0 A, space group C2, one tetramer per asymmetric unit); also called R218Q/T309KS; R218Q/T309Ks
binding result [10]: binds

B2: Kir2.1L-E303K (other, mouse, UniProt P35561 44-64, looked up)
chain: RSRFVKKDGHCNVQFINVGEKRNETLVFSHNAVIAMRDGKLCLMWRVGNLRKSHLVEAHVRAQLLKSRITSEGEYIPLDQIDINVGFDSGIDRIFLVSPITIVHEIDEDSPLYDLSKQDIDNADFEIVVILEGMVKATAMTTQCRSSYLANEILWGHRYEPVLFEEKHYYKVDYSRFHKTYEVPNTPLCSARDLAEKKYILSNANSFCYENEVALTSKEEEEDSENGVPESTSTDSPPGIDLHNQASVPLEPRPLRRESEI
notes: range 44-64;range 189-428; Same construct as Kir2.1L; also called E303KL
binding result [11]: binds

B3: Kir2.1L-R218Q/T309K (other, mouse, UniProt P35561 44-64, looked up)
chain: B2 chain with R51Q, K136E, T142K
notes: range 44-64;range 189-428; Same construct as Kir2.1L; also called R218Q/T309KL
binding result [12]: binds

B4: Kir2.1L-R218Q/T309R (other, mouse, UniProt P35561 44-64, looked up)
chain: B2 chain with R51Q, K136E, T142R
notes: range 44-64;range 189-428; Same construct as Kir2.1L; also called R218Q/T309RL
binding result [12]: binds

B5: Kir2.1L-G300V (other, mouse, UniProt P35561 44-64, looked up)
chain: B2 chain with G133V, K136E
notes: range 44-64;range 189-428; Same construct as Kir2.1L; also called G300VL
binding result [13]: binds
